# Test results published in PMC11602913 (EJNMMI Radiopharmacy and Chemistry, 2024).
# Assays:
# [1] = Stability of the 212Pb-labelled product at room temperature (radio-TLC); format: physicochemical
# Experimental: Since the radiolysis and alpha decay is often discussed as fatal for the radiolabelled molecules in solution (Roscher et al. [2020]), the stability of the ^212Pb-labelled product was tested at room temperature. A TLC sample was taken from the product vial 4 h after radiosynthesis. Right after development of the TLC strip, > 20% of activity was found as unbound activity at the front of the TLC (Fig. S3). […] The activity at the front of the TLC was mainly due to free ^208Tl, which is reasonable due to 36% direct alpha decay from ^212Bi.
# RCP was monitored by thin-layer chromatography (TLC) on iTLC-SG plates (Agilent, Santa Clara, California, USA). Measurement of the radionuclidic purity (RNP) and evaluation of the radio-TLC and was performed with a thin-layer scanner (MiniScanPRO + , Eckert&Ziegler Eurotope GmbH, Berlin, Germany) equipped with a Model 43–2 alpha detector ZnS(Ag) scintillator (Ludlum Measurements, Sweetwater, Texas, USA) and a built-in multi-channel analyzer for gamma spectroscopy.
# [2] = system: neuroendocrine tumours (NET); experiment: Individual patient application of the 212Pb-labelled peptide; format: in vivo, human; settings: patients, doses of 1–1.5 MBq/kg
# Experimental: The precursor concentration (0.1 µg/MBq) results in a maximum mass of 50 µg (31.7 nmol) for 500 MBq ^212Pb-labelled peptide, which is half to the mass used for routine ^177Lu-preparations with 5000 MBq (Brogsitter et al. [2017]). At this concentration, any ^212Bi generated during the reaction time by free ^212Pb is rebound by the precursor (Li et al. [2023]). Typically, doses of 1–1.5 MBq/kg were administered per patient. […] The detailed results of patient treatments will be discussed in a further publication.
# [3] = system: somatostatin receptor subtype 2 (SSTR2); settings: ref Li et al. [2023]; cited from earlier work
# Excerpt: (§1) The well-known chelator DOTA and its derivatives tend to lose up to 40% of ^212Bi from its ^212Pb-complexes due to β^–-conversion accompanied by 38% conversion electrons and a cascade of Auger-Meitner electrons (Mirzadeh et al. [1993]; Bauer et al. [2024]). […] PSC-PEG2-TOC (VMT-α-NET) is a somatostatin receptor subtype 2 (SSTR2) targeting peptide of very high stability for the treatment of neuroendocrine tumours ...
# [4] = DOTA and its derivatives; ref Mirzadeh et al. [1993]; Bauer et al. [2024]; cited from earlier work
# Excerpt: as §1
molecule,measurement,setting,value
[^212Pb]Pb-PSC-PEG2-TOC [[^212Pb]Pb-VMT-α-NET],free 212Bi together with free 208Tl daughter nuclides observed in the TLCs,"[1]; 4 h after radiosynthesis, radio-TLC",up to 20%
same,spot for unbound radionuclides on TLC,"[1]; product vial at room temperature, TLC sample taken 4 h after radiosynthesis, measured 10 h after development of the TLC strip, iTLC-SG, citrate eluant (Fig. S4)",below 5%
same,unbound activity at the front of the TLC,"[1]; product vial at room temperature, TLC sample taken 4 h after radiosynthesis, measured right after development of the TLC strip, iTLC-SG, citrate eluant (Fig. S3)",> 20%
same,radiolysis of the 212Pb-labelled product,"[1]; room temperature, within 4 h after radiosynthesis, radio-TLC",no significant radiolysis
same,disease response in individual patient application,[2],stable disease for more than six months
PSC-PEG2-TOC [VMT-α-NET],renal excretion,[3],fast renal excretion
same,tumour accumulation,[3],rapid tumour accumulation
same,tumour retention,[3],high tumour retention
O=C(O)CN1CCN(CC(=O)O)CCN(CC(=O)O)CCN(CC(=O)O)CC1 [DOTA],loss of 212Bi from 212Pb-complexes due to β−-conversion,[4],up to 40%
